The sequences below were run on Escherichia coli TOP10 (assay: shrunken log2 fold change of peptide-encoding DNA abundance (4.5 h post-induction vs induction); higher = less antimicrobial activity (less host growth inhibition)). Details: time post-induction: 4.5 h; library: site-saturation at positions 5, 18, 19, 20.
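Further: peptides expressed intracellularly from a pBAD plasmid library in pooled LB shake-flask culture, induced with 0.3% L-arabinose, DNA abundance read by NGS, three biological replicates, DESeq2 with apeglm shrinkage.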

Sequence	shrunken log2 fold change
RRIRPRPPRLPRPRPRPCQSPRP	-0.123
RRIRSRPPRLPRPRPRPNIDPRP	-0.204
RRIRCRPPRLPRPRPRPVPDPRP	-0.0739
RRIRNRPPRLPRPRPRPNSCPRP	-0.137
RRIRWRPPRLPRPRPRPAMKPRP	-0.0119
RRIRCRPPRLPRPRPRPVHDPRP	0.141
RRIRCRPPRLPRPRPRPNHVPRP	-0.248
RRIRNRPPRLPRPRPRPLQRPRP	0.0374
RRIRCRPPRLPRPRPRPCVDPRP	-0.164
RRIRERPPRLPRPRPRPEWHPRP	0.0244
RRIRVRPPRLPRPRPRPCIKPRP	-0.592
RRIRARPPRLPRPRPRPHDAPRP	0.122
RRIRIRPPRLPRPRPRPALHPRP	-0.268
RRIRKRPPRLPRPRPRPSMDPRP	0.0069
RRIRSRPPRLPRPRPRPVCRPRP	0.199
RRIRARPPRLPRPRPRPCTNPRP	0.109
RRIRERPPRLPRPRPRPQAGPRP	0.275
RRIRERPPRLPRPRPRPDRMPRP	-0.0498
RRIRIRPPRLPRPRPRPKADPRP	0.204
RRIRMRPPRLPRPRPRPDMIPRP	-0.00213

Sequence	shrunken log2 fold change
RRIRQRPPRLPRPRPRPVILPRP	-0.0369
RRIRHRPPRLPRPRPRPKVRPRP	-0.0711
RRIRDRPPRLPRPRPRPCKEPRP	0.00884
RRIRIRPPRLPRPRPRPVQDPRP	-1.09
RRIRKRPPRLPRPRPRPCYPPRP	-0.446
RRIRARPPRLPRPRPRPHIGPRP	-0.175
RRIRYRPPRLPRPRPRPIEPPRP	-0.111
RRIRGRPPRLPRPRPRPTGRPRP	0.907
RRIRARPPRLPRPRPRPGENPRP	0.687
RRIRERPPRLPRPRPRPNFPPRP	-0.169
RRIRMRPPRLPRPRPRPAKQPRP	1.12
RRIRQRPPRLPRPRPRPFSEPRP	-0.477
RRIRPRPPRLPRPRPRPPEWPRP	0.443
RRIRNRPPRLPRPRPRPARAPRP	0.44
RRIRSRPPRLPRPRPRPGYMPRP	-0.148
RRIRLRPPRLPRPRPRPPMMPRP	-0.149
RRIRSRPPRLPRPRPRPGTNPRP	-0.188
RRIRRRPPRLPRPRPRPTELPRP	0.42
RRIRWRPPRLPRPRPRPKVVPRP	0.352
RRIRWRPPRLPRPRPRPKDSPRP	0.118

Sequence	shrunken log2 fold change
RRIRARPPRLPRPRPRPCAFPRP	0.303
RRIRNRPPRLPRPRPRPQLEPRP	0.307
RRIRFRPPRLPRPRPRPWIAPRP	-0.0534
RRIRKRPPRLPRPRPRPHGGPRP	-0.0161
RRIRVRPPRLPRPRPRPSMYPRP	0.531
RRIRNRPPRLPRPRPRPRGRPRP	0.316
RRIRIRPPRLPRPRPRPKPHPRP	-0.0472
RRIRGRPPRLPRPRPRPAGCPRP	0.973
RRIRPRPPRLPRPRPRPWANPRP	-0.0618
RRIRSRPPRLPRPRPRPLWRPRP	0.303
RRIRARPPRLPRPRPRPFNMPRP	-0.201
RRIRSRPPRLPRPRPRPPFIPRP	-0.252
RRIRFRPPRLPRPRPRPIMCPRP	-0.273
RRIRLRPPRLPRPRPRPIFDPRP	-0.0489
RRIRLRPPRLPRPRPRPRVRPRP	0.325
RRIRFRPPRLPRPRPRPNQYPRP	-1.01
RRIRVRPPRLPRPRPRPEKVPRP	0.13
RRIRGRPPRLPRPRPRPKRCPRP	0.788
RRIRDRPPRLPRPRPRPIPTPRP	0.00396
RRIRTRPPRLPRPRPRPMLIPRP	0.0601

Source: the supplement of paper PMC9112550, “Optimization of the antimicrobial peptide Bac7 by deep mutational scanning” (BMC Biology, 2022)
